Experimental data from patent US11371056B2, “HPPD variants and methods of use” (BASF Agricultural Solutions Seed US LLC, priority 2017, dated 2022).

System: Pseudomonas fluorescens HPPD polypeptide (wild-type and mutants)
Assay: Coupled HPPD activity assay: turnover and residual turnover in crude HPPD polypeptide extracts with and without Cmpd. 1
Type: biochemical
Settings: for Residual turnover: presence of 100 μM Cmpd. 1; for Residual turnover / Turnover: changes in absorbance (OD) at 320 nm in the coupled assay, 30 min; for turnover and residual turnover, comparison in words: 100 μM Cmpd. 1, Table 3; for Residual turnover [%]: 100 μM Cmpd. 1, normalised to turnover without inhibitor; for Turnover: absence of Cmpd. 1
Procedure: For the generation of crude HPPD polypeptide extract in micro titer plates (MTP) for the determination of residual activity in inhibition assays, cells were grown in 40 or 150 μl LB medium containing 1% Glucose (Merck, Darmstadt, Germany) and 100 μg/ml ampicillin in a standard 96 well plate (Thermo Fisher Scientific, Waltham, USA) incubated for about 18 h in a humidity incubator at 37° C. 30 μl of this starter culture were added to 600 μl LB medium containing 100 μg/ml ampicillin and 150 mM Hepes (Merck, Darmstadt, Germany) as inoculum for the expression culture in 96 well plates (2 ml deep wells; HJ Bioanalytik, Erkelenz, Germany). The plates were sealed by an aluminium foil, and cells were incubated for 5 h at 37° C. on a plate shaker at 750 rpm. The expression was induced by addition of IPTG in a final concentration of 1 mM followed by further sealed incubation for about 18 h at 30° C. on a plate shaker at 750 rpm.
Cells were harvested by centrifugation at 4° C., 2500 g for 15 min discarding the supernatant. Cell pellets were stored at −80° C. and lysed in 250 μl 1× BugBuster® (Merck, Darmstadt, Germany) in 140 mM Tris (pH 7.8), with 1:25000 diluted BNase® (Qiagen, Hilden, Germany) by incubation of the resuspended cells for 30 min at 4° C. and 1000 rpm. Lysates were clarified by centrifugation for 15 min at 4° C., 2500 g, and 150 μl supernatant were transferred in standard 96 well plate (Thermo Fisher Scientific, Waltham, USA) for subsequent testing in quadruplets.
The activity of HPPD polypeptides was determined in absence or presence of HPPD inhibitors using the coupled HPPD activity assay (FIG. 1).
For the determination of the residual activity, the apparent kinetic constant (kapp) of the determined substrate conversion was measured as kinetic changes in absorbance (OD) at 320 nm in a coupled assay, in that homogentisate (HGA) formed by HPPD from HPP is directly converted into the well absorbing molecule maleylacetoacetate (MAA) by a second enzyme homogentisate dioxygenase (HGD), applied in excess uniformly in all assays (see FIG. 1). The measurements were performed in 384 micro titer plates (Greiner Bio-One GmbH, Frickenhausen, Germany) by plate readers (Tecan infinite M1000 or M1000PRO, Tecan, Männedorf, Switzerland). The kcat/kM ratio of an enzymatic activity is proportional to the apparent kinetic constant kapp and is proportional to kcat/kM*[E] ([E]=enzyme concentration). […] As both kapp measurements in the presence and absence of inhibitor were performed by use of the identical enzyme sample, crude or purified, and thereby at the same enzyme concentration, the enzyme concentration eliminates from the calculation of residual activity and the ratio of both kapp directly indicates the change of kM due to the inhibition.
The assay solution used for determination of residual activities in raw HPPD polypeptide samples was composed by 200 mM sodium phosphate (Merck, Darmstadt, Germany, pH 7.0), 5 mM MgCl2 (Merck, Darmstadt, Germany), 20 mM ascorbate (Sigma-Aldrich, St. Louis, USA), 1 mM DTT (Sigma-Aldrich, St. Louis, USA), 0.1% Pluronic F-68 (Sigma-Aldrich, St. Louis, USA), 40 μM FeSO4 (Sigma-Aldrich, St. […] Louis, USA) and equilibrated for 20 min on ice.

Molecule	time-course of inhibition, inhibitor characteristic (HPPD inhibitor herbicides, FIG. 2: 200 μM HPP, 0, 4 or 13 μM Cmpd. 1)	Residual turnover	turnover and residual turnover, comparison in words	Residual turnover [%]	Turnover
SEQ ID NO:1: reference wild-type Pseudomonas fluorescens HPPD polypeptide (protein, listed as Pseudomonas fluorescens, 4-hydroxyphenylpyruvate dioxygenase (HPPD; Pseudomonas fluorescens) (1)..(358)) MADLYENPMGLMGFEFIEFASPTPGTLEPIFEIMGFTKVATHRSKNVHLYRQGEINLILNNEPNSIASYFAAEHGPSVCGMAFRVKDSQKAYNRALELGAQPIHIDTGPMELNLPAIKGIGGAPLYLIDRFGEGSSIYDIDFVYLEGVERNPVGAGLKVIDHLTHNVYRGRMVYWANFYEKLFNFREARYFDIKGEYTGLTSKAMSAPDGMIRIPLNEESSKGAGQIEEFLMQFNGEGIQHVAFLTDDLVKTWDALKKIGMRFMTAPPDTYYEMLEGRLPDHGEPVDQLQARGILLDGSSVEGDKRLLLQIFSETLMGPVFFEFIQRKGDDGFGEGNFKALFESIERDQVRRGVLTAD	slow and tight binding inhibitor	0.042	–	–	–
SEQ ID NO:57 (protein, mutant HPPD polypeptide) MADLYENPMGLMGFEFIEFASPTPGTLEPIFEIMGFTKVATHRSKNVHLYRQGEINLILNNEPNSIASYFAAEHGPSVCGMAFRVKDSQKAYNRALELGAQPIHIDTGPMELNLPAIKGIGGAPLYLIDRFGEGSSIYDIDFVYLEGVERNPVGAGLKVIDHLTHNVYRGRMVYWANFYEKLFNFREARYFDIKGEYTGLTSKAMSAPDGMIKIPLNEESSKGAGQIEEFLMQFNGEGIQHVAFLTDDLVKTWDALKKIGMRFMTAPGDEYYEMLEGRLPDHGEPVDQLQARGILLDGSSVEGDKRLLLQIFSEQLMGPVFFEFIQRKGDDGFGPHSFKVLFEQMERDQVRRGVLTAD	–	0.232	increases significantly the absolute turnover	68%	0.34
SEQ ID NO:36 (protein, mutant HPPD polypeptide) MADLYENPMGLMGFEFIEFASPTPGTLEPIFEIMGFTKVATHRSKNVHLYRQGEINLILNNEPNSIASYFAAEHGPSVCGMAFRVKDSQKAYNRALELGAQPIHIDTGPMELNLPAIKGIGGAPLYLIDRFGEGSSIYDIDFVYLEGVERNPVGAGLKVIDHLTHNVYRGRMVYWANFYEKLFNFREARYFDIKGEYTGLTSKAMSAPDGMIRIPLNEESSKGAGQIEEFLMQFNGEGIQHVAFLTDDLVKTWDALKKIGMRFMTAPGDEYYEMLEGRLPDHGEPVDQLQARGILLDGSSVEGDKRLLLQIFSEQLMGPVFFEFIQRKGDDGFGPHSFKVLFEQMERDQVRRGVLTAD	–	0.162	increases significantly the turnover and residual turnover	66%	0.244
SEQ ID NO:38 (protein, mutant HPPD polypeptide) MADLYENPMGLMGFEFIEFASPTPGTLEPIFEIMGFTKVATHRSKNVHLYRQGEINLILNNEPNSIASYFAAEHGPSVCGMAFRVKDSQKAYNRALELGAQPIHIDTGPMELNLPAIKGIGGAPLYLIDRFGEGSSIYDIDFVYLEGVERNPVGAGLKVIDHLTHNVYRGRMVYWANFYEKLFNFREARYFDIKGEYTGLTSKAMSAPDGMIRIPLNEESSKGAGQIEEFLMQFNGEGIQHVAFLTDDLVKTWDALKKIGMRFMTAPGDEYYEMLEGRLPDHGEPVDQLQARGILLDGSSVEGDKRLLLQIFSETLMGPVFFEFIQRKGDDGFGPHSFKVLFEQMERDQVRRGVLTAD	–	0.007	does not show a significant turnover	–	0.008
SEQ ID NO:28 (protein, mutant HPPD polypeptide) MADLYENPMGLMGFEFIEFASPTPGTLEPIFEIMGFTKVATHRSKNVHLYRQGEINLILNNEPNSIASYFAAEHGPSVCGMAFRVKDSQKAYNRALELGAQPIHIDTGPMELNLPAIKGIGGAPLYLIDRFGEGSSIYDIDFVYLEGVERNPVGAGLKVIDHLTHNVYRGRMVYWANFYEKLFNFREARYFDIKGEYTGLTSKAMSAPDGMIRIPLNEESSKGAGQIEEFLMQFNGEGIQHVAFLTDDLVKTWDALKKIGMRFLTAPGDEYYEMLEGRLPDHGEPVDQLQARGILLDGSSVEGDKRLLLQIFSETLMGPVFFEFIQRKGDDGFGPHSFKVLFESIERDQVRRGVLTAD	–	0.102	decreases the turnover and residual turnover	50%	0.203
SEQ ID NO:2 (protein, mutant HPPD polypeptide) MADLYENPMGLMGFEFIEFASPTPGTLEPIFEIMGFTKVATHRSKNVHLYRQGEINLILNNEPNSIASYFAAEHGPSVCGMAFRVKDSQKAYNRALELGAQPIHIDTGPMELNLPAIKGIGGAPLYLIDRFGEGSSIYDIDFVYLEGVERNPVGAGLKVIDHLTHNVYRGRMVYWANFYEKLFNFREARYFDIKGEYTGLTSKAMSAPDGMIRIPLNEESSKGAGQIEEFLMQFNGEGIQHVAFLTDDLVKTWDALKKIGMRFMTAPPDTYYEMLEGRLPDHGEPVDQLQARGILLDGSSVEGDKRLLLQIFSETLMGPVFFEFIQRKGDDGFGPWNFAQLFESIERDQVRRGVLTAD	–	0.041	–	–	0.092
SEQ ID NO:26 (protein, mutant HPPD polypeptide) MADLYENPMGLMGFEFIEFASPTPGTLEPIFEIMGFTKVATHRSKNVHLYRQGEINLILNNEPNSIASYFAAEHGPSVCGMAFRVKDSQKAYNRALELGAQPIHIDTGPMELNLPAIKGIGGAPLYLIDRFGEGSSIYDIDFVYLEGVERNPVGAGLKVIDHLTHNVYRGRMVYWANFYEKLFNFREARYFDIKGEYTGLTSKAMSAPDGMIRIPLNEESSKGAGQIEEFLMQFNGEGIQHVAFLTDDLVKTWDALKKIGMRFLTAPGDEYYEMLEGRLPDHGEPVDQLQARGILLDGSSVEGDKRLLLQIFSEQLMGPVFFEFIQRKGDDGFGPHSFKVLFESIERDQVRRGVLTAD	–	0.14	significant improvement regarding residual turnover	60%	0.235
SEQ ID NO:35 (protein, mutant HPPD polypeptide) MADLYENPMGLMGFEFIEFASPTPGTLEPIFEIMGFTKVATHRSKNVHLYRQGEINLILNNEPNSIASYFAAEHGPSVCGMAFRVKDSQKAYNRALELGAQPIHIDTGPMELNLPAIKGIGGAPLYLIDRFGEGSSIYDIDFVYLEGVERNPVGAGLKVIDHLTHNVYRGRMVYWANFYEKLFNFREARYFDIKGEYTGLTSKAMSAPDGMIRIPLNEESSKGAGQIEEFLMQFNGEGIQHVAFLTDDLVKTWDALKKIGMRFMTAPGDEYYEMLEGRLPDHGEPVDQLQARGILLDGSSVEGDKRLLLQIFSEKLMGPVFFEFIQRKGDDGFGPHSFKVLFEQMERDQVRRGVLTAD	–	0.158	increases significantly the turnover and residual turnover	59%	0.27
SEQ ID NO:61 (protein, mutant HPPD polypeptide) MADLYENPMGLMGFEFIEFASPTPGTLEPIFEIMGFTKVATHRSKNVHLYRQGEINLILNNEPNSIASYFAAEHGPSVCGMAFRVKDSQKAYNRALELGAQPIHIDTGPMELNLPAIKGIGGAPLYLIDRFGEGSSIYDIDFVYLEGVERNPVGAGLKVIDHLTHNVYRGRMVYWANFYEKLFNFREARYFDIKGEYTGLTSKAMSAPDGMIKIPLNEESSKGAGQIEEFLMQFNGEGIQHVAFLTDDLVKTWDALKKIGMRFLTAPGDEYYEMLEGRLPDHGEPVDQLQARGILLDGSSVEGDKRLLLQIFSEQLMGPVFFEFIQRKGDDGFGPDSFKVLFEQMERDQVRRGVLTAD	–	0.116	decreases the turnover and residual turnover	56%	0.206
